The assay concerns the target … (MimA2) presented by H-2D^b on peptide-pulsed RMA-S cells (mouse) (UniProt P01899). Briefly: cell-based or functional assay.

Chain of … (MimA2) presented by H-2D^b on peptide-pulsed RMA-S cells (mouse) (P01899 25-362): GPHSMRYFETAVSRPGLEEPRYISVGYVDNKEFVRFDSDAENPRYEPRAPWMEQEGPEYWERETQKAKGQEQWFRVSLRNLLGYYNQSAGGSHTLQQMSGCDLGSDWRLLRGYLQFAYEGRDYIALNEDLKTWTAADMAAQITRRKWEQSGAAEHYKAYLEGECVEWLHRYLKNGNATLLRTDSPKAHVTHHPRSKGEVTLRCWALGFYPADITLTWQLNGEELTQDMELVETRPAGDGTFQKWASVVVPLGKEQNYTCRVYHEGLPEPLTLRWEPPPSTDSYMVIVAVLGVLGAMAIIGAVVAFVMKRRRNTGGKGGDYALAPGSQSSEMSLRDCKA

Take “TCR of the β cell-autoreactive CD8+ T cell clone AI4 (Vα8/Vβ2)”: the peptide concentration giving half-maximal activity in the AI4 cytotoxicity assay (51Cr release, E:T 40, RMA-S targets) came out at 10 pM.

Source of the values: US20100009923A1.
